Measurements taken from US20190352359A1 (IMMATICS BIOTECHNOLOGIES, published 2019).

Assays:
HLA-A*24 [1] = biological target: T1, HLA-A*24; assay: UV peptide-exchange ELISA (anti-b2m); yield grade ++ = >20%
T1 construct: Monomers captured on streptavidin plates; also called peptide-receptive MHC molecules; MHC complexes
Description: Candidate peptides for T cell based therapies according to the present invention were further tested for their MHC binding capacity (affinity). The individual peptide-MHC complexes were produced by UV-ligand exchange, where a UV-sensitive peptide is cleaved upon UV-irradiation, and exchanged with the peptide of interest as analyzed. Only peptide candidates that can effectively bind and stabilize the peptide-receptive MHC molecules prevent dissociation of the MHC complexes. To determine the yield of the exchange reaction, an ELISA was performed based on the detection of the light chain (p2m) of stabilized MHC complexes. The assay was performed as generally described in Rodenko et al. (Rodenko et al., 2006)
96 well MAXISorp plates (NUNC) were coated over night with 2 ug/ml streptavidin in PBS at room temperature, washed 4× and blocked for 1 h at 37° C. in 2% BSA containing blocking buffer. Refolded HLA-A*02:01/MLA-001 monomers served as standards, covering the range of 15-500 ng/ml. Peptide-MHC monomers of the UV-exchange reaction were diluted 100-fold in blocking buffer. Samples were incubated for 1 h at 37° C., washed four times, incubated with 2 ug/ml HRP conjugated anti-β2m for 1h at 37° C., washed again and detected with TMB solution that is stopped with […]. Absorption was measured at 450 nm. Candidate peptides that show a high exchange yield (preferably higher than 50%, most preferred higher than 75%) are generally preferred for a generation and production of antibodies or fragments thereof, and/or T cell receptors or fragments thereof, as they show sufficient avidity to the MHC molecules and prevent dissociation of the MHC complexes.

HLA-A*24 [2] = biological target: T1, HLA-A*24; assay: UV peptide-exchange ELISA (anti-b2m); yield grade ++++ = >75%
Method in brief: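 Peptides loaded onto HLA-A*24 by UV-induced cleavage of a UV-sensitive peptide and exchange; stabilized complexes, diluted 100-fold, captured on streptavidin and detected with HRP anti-β2m (1 h, 37 °C), TMB, A450. Exchange yield derived against refolded HLA-A*02:01/MLA-001 monomer standards (15-500 ng/ml).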

IFQHFCEEI (also called IFQHFCEEI) [SMC1B-002] showed a peptide exchange yield (HLA-A*24 [1]) of 20 to 50%.

In the case of KYSVAFYSLD (also called KYSVAFYSLD) [LAMA1-008], the peptide exchange yield (HLA-A*24 [1]) is reported as 20 to 50%.

Work on YIANLISCF (also called YIANLISCF) [GLYATL3-001] yielded a peptide exchange yield (HLA-A*24 [1]) of 20 to 50%.

In the case of TYGEEMPEEI (also called TYGEEMPEEI) [DNAH17-004], the peptide exchange yield (HLA-A*24 [1]) is reported as 20 to 50%.

With YTCSRAVSLF (also called YTCSRAVSLF) [OTOG-001] the peptide exchange yield (HLA-A*24 [1]) was 20 to 50%.

TYVPSTFLV (also called TYVPSTFLV) [GABRP-005] was tested, and the peptide exchange yield (HLA-A*24 [2]) was over 75%.

With SYLPTAERL (also called SYLPTAERL) [SYT12-001] the peptide exchange yield (HLA-A*24 [2]) was over 75%.

LYGFFFKI (also called LYGFFFKI) [BTBD16-002] gave a peptide exchange yield (HLA-A*24 [2]) of over 75%.

With IGLSVVHRF (also called IGLSVVHRF) [OR51E2-003] the peptide exchange yield (HLA-A*24 [2]) was over 75%.

VYDTMIEKFA (also called VYDTMIEKFA) [PTP-044] gave a peptide exchange yield (HLA-A*24 [1]) of 20 to 50%.

KMLPEASLLI (also called KMLPEASLLI) [NLRP4-004] gave a peptide exchange yield (HLA-A*24 [1]) of 20 to 50%.

Binder SYATPVDLW (also called SYATPVDLW) [CDK6-007] has a peptide exchange yield (HLA-A*24 [2]) of over 75%.

Binder TYSKTIALYGF (also called TYSKTIALYGF) [BTBD16-004] has a peptide exchange yield (HLA-A*24 [2]) of over 75%.

EVVHTVFLF (also called EVVHTVFLF) [HMCN1-007] showed a peptide exchange yield (HLA-A*24 [1]) of 20 to 50%.

In the case of MFQFEHIKW (also called MFQFEHIKW) [FBXW10-001], the peptide exchange yield (HLA-A*24 [1]) is reported as 20 to 50%.

RRYFGEKVAL (also called RRYFGEKVAL) [ANO7-005] gave a peptide exchange yield (HLA-A*24 [1]) of 20 to 50%.

In the case of KYKPVALQCIA (also called KYKPVALQCIA) [HMCN1-009], the peptide exchange yield (HLA-A*24 [1]) is reported as 20 to 50%.

For YLPNPSLNAF (also called YLPNPSLNAF) [CYP1A1-003], the peptide exchange yield (HLA-A*24 [1]) was 20 to 50%.

LYAFLGSHF (also called LYAFLGSHF) [KISS1R-003] gave a peptide exchange yield (HLA-A*24 [2]) of over 75%.

VLQGEFFLF (also called VLQGEFFLF) [KBTBD8-005] gave a peptide exchange yield (HLA-A*24 [2]) of over 75%.

In the case of IYIYPFAHW (also called IYIYPFAHW) [NPFFR2-002], the peptide exchange yield (HLA-A*24 [2]) is reported as over 75%.

In the case of VYLRIGGF (also called VYLRIGGF) [WNT7A-002], the peptide exchange yield (HLA-A*24 [1]) is reported as 20 to 50%.

With ALFAVCWAPF (also called ALFAVCWAPF) [QRFPR-002] the peptide exchange yield (HLA-A*24 [1]) was 20 to 50%.

FLPRAYYRW (also called FLPRAYYRW) [ANO7-001] gave a peptide exchange yield (HLA-A*24 [1]) of 20 to 50%.

VYAVSSDRF (also called VYAVSSDRF) [DCX-001] was tested, and the peptide exchange yield (HLA-A*24 [2]) was over 75%.

VFQPNPLF (also called VFQPNPLF) [WISP3-002] showed a peptide exchange yield (HLA-A*24 [1]) of 20 to 50%.

VWSCEGCKAF (also called VWSCEGCKAF) [ESR-001] was tested, and the peptide exchange yield (HLA-A*24 [1]) was 20 to 50%.

Binder RRVTWNVLF (also called RRVTWNVLF) [BTBD17-003] has a peptide exchange yield (HLA-A*24 [1]) of 20 to 50%.

For DYSKQALSL (also called DYSKQALSL) [LAMC2-018], the peptide exchange yield (HLA-A*24 [1]) was 20 to 50%.

In the case of SYLENSASW (also called SYLENSASW) [DLX5-003], the peptide exchange yield (HLA-A*24 [2]) is reported as over 75%.

AYAIPSASLSW (also called AYAIPSASLSW) [HMCN1-005] gave a peptide exchange yield (HLA-A*24 [1]) of 20 to 50%.

LQPPWTTVF (also called LQPPWTTVF) [FCRL5-006] gave a peptide exchange yield (HLA-A*24 [1]) of 20 to 50%.

For ALFPMGPLTF (also called ALFPMGPLTF) [LILRA4-003], the peptide exchange yield (HLA-A*24 [1]) was 20 to 50%.

EYNVFPRTL (also called EYNVFPRTL) [MMP13-004] showed a peptide exchange yield (HLA-A*24 [1]) of 20 to 50%.

Work on SYFEYRRLL (also called SYFEYRRLL) [LAMC2-019] yielded a peptide exchange yield (HLA-A*24 [1]) of 20 to 50%.

Work on ELMAHPFLL (also called ELMAHPFLL) [CYP4Z-002] yielded a peptide exchange yield (HLA-A*24 [1]) of 20 to 50%.

Binder VYPSESTVM (also called VYPSESTVM) [PTP-045] has a peptide exchange yield (HLA-A*24 [1]) of 20 to 50%.

RPEKVFVF (also called RPEKVFVF) [COL11A1-005] was tested, and the peptide exchange yield (HLA-A*24 [1]) was 20 to 50%.

For MLYFAPDLIL (also called MLYFAPDLIL) [PGR-004], the peptide exchange yield (HLA-A*24 [1]) was 20 to 50%.

NYTRLVLQF (also called NYTRLVLQF) [GABRP-004] was tested, and the peptide exchange yield (HLA-A*24 [2]) was over 75%.

For SIYPHGVTF (also called SIYPHGVTF) [F5-007], the peptide exchange yield (HLA-A*24 [1]) was 20 to 50%.

Binder KYLSIPTVFF (also called KYLSIPTVFF) [UGT1A3-002] has a peptide exchange yield (HLA-A*24 [2]) of over 75%.

Work on SLPGSFIYVF (also called SLPGSFIYVF) [HMCN1-012] yielded a peptide exchange yield (HLA-A*24 [1]) of 20 to 50%.

Binder VHSYLGSPF (also called VHSYLGSPF) [MPL-001] has a peptide exchange yield (HLA-A*24 [1]) of 20 to 50%.

VGRSPVFLF (also called VGRSPVFLF) [COL11A1-006] gave a peptide exchange yield (HLA-A*24 [1]) of 20 to 50%.

For MHRTWRETF (also called MHRTWRETF) [ANO7-004], the peptide exchange yield (HLA-A*24 [1]) was 20 to 50%.

CAMPVAMEF (also called CAMPVAMEF) [KBTBD8-003] showed a peptide exchange yield (HLA-A*24 [1]) of 20 to 50%.

For AQGSGTVTF (also called AQGSGTVTF) [FCRL3-004], the peptide exchange yield (HLA-A*24 [1]) was 20 to 50%.

HQYGGAYNRV (also called HQYGGAYNRV) [DLX5-002] showed a peptide exchange yield (HLA-A*24 [1]) of 20 to 50%.

Binder TYVPSTFLVVL (also called TYVPSTFLVVL) [GABRP-006] has a peptide exchange yield (HLA-A*24 [2]) of over 75%.

WQNVTPLTF (also called WQNVTPLTF) [MMP16-002] showed a peptide exchange yield (HLA-A*24 [1]) of 20 to 50%.

Work on ILQAPLSVF (also called ILQAPLSVF) [FCRL5-005] yielded a peptide exchange yield (HLA-A*24 [1]) of 20 to 50%.

In the case of YTIERYFTL (also called YTIERYFTL) [GABRP-007], the peptide exchange yield (HLA-A*24 [2]) is reported as over 75%.

Work on MLPQIPFLLL (also called MLPQIPFLLL) [COL10-001] yielded a peptide exchange yield (HLA-A*24 [1]) of 20 to 50%.

FMVIAGMPLF (also called FMVIAGMPLF) [SLC6A3-001] gave a peptide exchange yield (HLA-A*24 [1]) of 20 to 50%.

RHYHSIEVF (also called RHYHSIEVF) [LOXL4-004] gave a peptide exchange yield (HLA-A*24 [1]) of 20 to 50%.

Binder LYMRFVNTHF (also called LYMRFVNTHF) [SPINK2-002] has a peptide exchange yield (HLA-A*24 [1]) of 20 to 50%.

Binder AYLKLLPMF (also called AYLKLLPMF) [SLC5A4-001] has a peptide exchange yield (HLA-A*24 [2]) of over 75%.

Work on YLKSVQLF (also called YLKSVQLF) [RFX8-001] yielded a peptide exchange yield (HLA-A*24 [1]) of 20 to 50%.

In the case of FFLFIPFF (also called FFLFIPFF) [ADAM2-001], the peptide exchange yield (HLA-A*24 [1]) is reported as 20 to 50%.

With IMQGFIRAF (also called IMQGFIRAF) [PAE-002] the peptide exchange yield (HLA-A*24 [1]) was 20 to 50%.

VYVRPRVF (also called VYVRPRVF) [HMCN1-013] was tested, and the peptide exchange yield (HLA-A*24 [1]) was 20 to 50%.

In the case of IRPDYSFQF (also called IRPDYSFQF) [TRDV3-001], the peptide exchange yield (HLA-A*24 [1]) is reported as 20 to 50%.

Binder KWFNVRMGFGF (also called KWFNVRMGFGF) [LIN-001] has a peptide exchange yield (HLA-A*24 [1]) of 20 to 50%.

KASKITFHW (also called KASKITFHW) [PTP-038] was tested, and the peptide exchange yield (HLA-A*24 [1]) was 20 to 50%.
